The test system of the data set is MS2 coat protein. The data set can be described thus: apparent KD of MS2 coat protein; designed switch direction (-1 OFF switch, 1 ON switch): -1; higher = weaker reporter binding. In a few lines: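 Three titration conditions were used: no input, 200 uM small-molecule ligand, and an oligonucleotide input. In each, SNAP-549-labelled MS2 coat protein was raised from 0.7 or 1.5 nM, doubling, to 3 µM over designed RNA switches transcribed on Illumina chips by stalled E. coli RNA polymerase. Curve fits of normalised cluster fluorescence gave values whose per-design median over clusters is the apparent KD.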

[1] abbreviates: Eterna round: R95, input ligand: microRNA oligo, concentration not stated.
Setting [2] is: input ligand: microRNA oligo, concentration not stated.
Setting [3] is: Eterna round: R95, input ligand: FMN 200 uM.
Where [4] appears, read: Eterna round: R95, input ligand: none.

The text below walks through data of the supplement of paper PMC9170038.

On to “UCGGCGCGAGGAUAUGCGGUUUGUGCUUUGGGCCCUCGCGUACAUGAGGAUCACCCAUGUAGAAGGCGCGCCGC [Apr-15 SS2-46] (puzzle: Exclusion 2)”, for which the “apparent KD of MS2 coat protein” value under setting [1] came to 95.6 nM.

In the case of “UCGGGAAGAGGAUAUACAUAGAAAUAGAUUCAUGUAAAACUACAUGAGGAUCACCCAUGUAGAAGGCUUUCCGU [Mat - Exclusion 2 - JL Mod - D55] (Eterna round: R97, puzzle: Exclusion 2)”, the “apparent KD of MS2 coat protein” value (input ligand: FMN 200 uM) is 146 nM and the “apparent KD of MS2 coat protein” value (input ligand: none) is 24.2 nM.

On to “UCGGUGCGAGGAUAUACGUUUGCGCGUUUUCGUUUGCGCGUACAUGAGGAUCACCCAUGUAGAAGGCGCGCGGC [Apr-15 SS2-12] (puzzle: Exclusion 2)”, for which the “apparent KD of MS2 coat protein” value under setting [1] came out at 11.8 nM.

As to “UCGUAGUCAGGAUAUACAUGAGGAUCACCCAUGUAAAAUUUUAAUUUAAUUUUAAGGUGUAGAAGGGACCAUUU [Ex3 #21] (Eterna round: R97, puzzle: Exclusion 3)”, the “apparent KD of MS2 coat protein” value is, setting by setting: (input ligand: FMN 200 uM) 46.7 nM; (input ligand: none) 45.8 nM.

“UCGUCCUGUGUAGGAUAUCGCGGGCUUUGCCCGCGAGAAGGACAUGAGGAUCACCCAUGUGGGCCGCGCCGCGGGCGCGGCCCA [new design] (Eterna round: R96, puzzle: Exclusion NG 1)”: the “apparent KD of MS2 coat protein” value reads like this: (input ligand: FMN 200 uM) 1360 nM; under setting [2], 4700 nM; (input ligand: none) 230 nM.

With “UCGUGGAUCGAGGAUAUGCCACGGACAGACGCCGCAGAAGGCGAAACAUGAGGAUCACCCAUGUGUGCCAUCCU [Eternabot (L1) Solution 52] (Eterna round: R97, puzzle: Exclusion 6)”, the “apparent KD of MS2 coat protein” value (input ligand: FMN 200 uM) was found to be 58.5 nM and the “apparent KD of MS2 coat protein” value (input ligand: none) is 56.5 nM.

With “UCGUGUAUAGAGGAUAUAUUAUUUAUUUAAACAAUAGAAGGCUAAACAUGAGGAUCACCCAUGUAUUUGGUUUU [JR_Ex6_Sub052] (Eterna round: R97, puzzle: Exclusion 6)”, the “apparent KD of MS2 coat protein” value reads like this: (input ligand: FMN 200 uM) 59.9 nM; (input ligand: none) 21.8 nM.

Take “UCGUGUCGAGAGGAUAUCUAGGACACCCUUCCAAGAGAAGGCUUGACAUGAGGAUCACCCAUGUACGGGUAAAU [EX6 A.9] (Eterna round: R97, puzzle: Exclusion 6)”: the “apparent KD of MS2 coat protein” value amounted to 25.6 nM (input ligand: FMN 200 uM) and 39.9 nM (input ligand: none).

On to “UCGUGUCUUGAGGAUAUGUUUGAAAAGGCCCACGCAGAAGGCGAGACAUGAGGAUCACCCAUGUCACAGCUCCG [EX6 C.16] (Eterna round: R97, puzzle: Exclusion 6)”, for which the “apparent KD of MS2 coat protein” value turned out to be 56.4 nM (input ligand: FMN 200 uM) and 18.6 nM (input ligand: none).

Turning to “UCGUUCCGUGUAGGAUAUUGGCCUUCCCUGGGCCGAGAAGGACAUGAGGAUCACCCAUGUAUGUUAUUAUCGCGCGUGGCGCAU [Design 86] (Eterna round: R96, puzzle: Exclusion NG 1)”, the “apparent KD of MS2 coat protein” value reads like this: (input ligand: FMN 200 uM) 73.9 nM; under setting [2], 14.5 nM; (input ligand: none) 18.4 nM.

Turning to “UCGUUGUGAGGAUAUAUAUGCAGUAAUCCUUUAAAUUUAUAACUUGAGGAUCACCCAAGUAGAAGGCGCGACGU [JR_Ex2_Sub056] (Eterna round: R97, puzzle: Exclusion 2)”, the “apparent KD of MS2 coat protein” value worked out at 160 nM (input ligand: FMN 200 uM) and 30.2 nM (input ligand: none).

With “UCGUUUUUUGAGGAUAUGCGACGUUCCUUCGUCGUAGAAGGCGAUACAUGAGGAUCACCCAUGUUUAUGGGCAU [LRO-Ex6-16] (puzzle: Exclusion 6)”, under setting [1], the “apparent KD of MS2 coat protein” value was found to be 109 nM.

Take “UCUAGCUUUUUGCGUCAAGCAUUGAAGUCUGUUAUCGUUACAUGAGGAUCACCCAUGUUUGUUUUAUGUCGUCUUGA [JR_SV3TOV2_Sub100] (puzzle: Sensor v3, turn-off variant 2)”: the “apparent KD of MS2 coat protein” value under setting [3] stood at 19.3 nM, the “apparent KD of MS2 coat protein” value under setting [1] came out at 15.6 nM and the “apparent KD of MS2 coat protein” value under setting [4] stood at 22.2 nM.

“UCUAGUUGGCAAGGAUAUCCUACAUUGUUCUGGCCCGGGCAUGCUACAUGAGGAUCACCCAUGUGGGAGAAGGUGCGUCAUUGC [Design 22] (Eterna round: R96, puzzle: Exclusion NG 2)”: the “apparent KD of MS2 coat protein” value by setting is: (input ligand: FMN 200 uM) 70.9 nM; under setting [2], 50.5 nM; (input ligand: none) 82.1 nM.

With “UCUCGCGGGCAAGGAUAUCCUACGCUGUUCUGGCCCGUGUUUGUUACAUGAGGAUCACCCAUGUGGGAGAAGGUGCACCAGGGC [Design 41] (Eterna round: R96, puzzle: Exclusion NG 2)”, the “apparent KD of MS2 coat protein” value is, setting by setting: (input ligand: FMN 200 uM) 62 nM; under setting [2], 36.5 nM; (input ligand: none) 76.4 nM.

With “UCUGCCGCCGUGAGGAUAUGCCCGCGCGCCCGCGGGCAGAAGGCACAUGAGGAUCACCCAUGUCCCGCGGCAUU [salish99_bmx4_r4_128] (Eterna round: R97, puzzle: Brourd's mod of Exclusion 4)”, the “apparent KD of MS2 coat protein” value reads like this: (input ligand: FMN 200 uM) 36.4 nM; (input ligand: none) 17.4 nM.

Consider “UCUGGAGCAGGAUAUAUAUGACGUGCUUCGGCACGGUGAGUACAUGAGGAUCACCCAUGUAGAAGGGCUCCAGA [Exclusion 2 (Mod of Brourd's E2/9-D2)] (Eterna round: R97, puzzle: Exclusion 2)”, for which the “apparent KD of MS2 coat protein” value is, setting by setting: (input ligand: FMN 200 uM) 81.8 nM; (input ligand: none) 20.3 nM.

For the sequence “UCUGGUCGAGGAUAUACAUGAGGAUCACCCAUGUGAUUAGCAGUCCUCGGACUGCAAUGUAGAAGGCGACCAGA [E3/2-A3] (Eterna round: R97, puzzle: Exclusion 3)”, the “apparent KD of MS2 coat protein” value is 894 nM (input ligand: FMN 200 uM) and 393 nM (input ligand: none).

For “UCUGUACAUCCCAAGCAUAACAUGAGGAUCACCCAUGUUGAACAAAACGUCGGUCCUGCUGCUCGUCGAAGGAAUAG [Eternabot (Original) Solution 8] (Eterna round: R97, puzzle: Sensor, turn-off variant 1)”, the “apparent KD of MS2 coat protein” value worked out at 47.4 nM (input ligand: FMN 200 uM) and 47.5 nM (input ligand: none).

“UCUUACUGAGGAUAUACAUAGAUUUACAUGAGGAUCACCCAUGUUCCUCUAAGUAUAUAUGUAGAAGGCAGAAGAA [Mat - Exclusion 5 - JL Mod - D43] (Eterna round: R97, puzzle: Exclusion 5)”: the “apparent KD of MS2 coat protein” value runs as follows: (input ligand: FMN 200 uM) 139 nM; (input ligand: none) 370 nM.

Regarding “UCUUACUGAGGAUAUACUUAGAUUUACAUGAGGAUCACCCAUGUUCCUCUAUGUAUAUAUGUAGAAGGCAGAAGAA [Mat - Exclusion 5 - JL Mod - D46] (Eterna round: R97, puzzle: Exclusion 5)”, the “apparent KD of MS2 coat protein” value by setting is: (input ligand: FMN 200 uM) 241 nM; (input ligand: none) 37.1 nM.

Regarding “UCUUGUGUUGAGGAUAUGCGCCGGCUCGCUGGCGCAGAAGGCGGCACAUGAGGAUCACCCAUGUCAGUUCGCGC [salish99_ex6_r004_007] (Eterna round: R97, puzzle: Exclusion 6)”, the “apparent KD of MS2 coat protein” value (input ligand: FMN 200 uM) was 56.3 nM and the “apparent KD of MS2 coat protein” value (input ligand: none) turned out to be 205 nM.

Turning to “UCUUUACAUGAGGAUCACCCAUGUGAGGAUAUGGUUUCGCUGGCCGUAGCCAGUGGAACCAGAAGGCGCGUGAU [Mat - Exclusion 1 - JL Mod - D25] (Eterna round: R97, puzzle: Exclusion 1)”, the “apparent KD of MS2 coat protein” value was 55.1 nM (input ligand: FMN 200 uM) and 70.9 nM (input ligand: none).

Take “UCUUUCUUUGUGAGGAUAUGCCCAAAUAAAAGCGGGCAGAAGGCACAUGAGGAUCACCCAUGUCCUGCGGUUUU [salish99_bmx4_r4_147] (Eterna round: R97, puzzle: Brourd's mod of Exclusion 4)”: the “apparent KD of MS2 coat protein” value by setting is: (input ligand: FMN 200 uM) 174 nM; (input ligand: none) 16.5 nM.

Turning to “UGAAAGCUAGGAUAUACAUGAGGAUCACCCAUGUACCGGCUUGGCCCUGGUCCAAAGUGUAGAAGGAGCACGCC [Reedcedima] (puzzle: Exclusion 3)”, the “apparent KD of MS2 coat protein” value under setting [1] came to 24.8 nM.

On to “UGAAAGGUAGGAUAUACGAAGAAAAAGGGUAGAAUAAUAACACAUGAGGAUCACCCAUGUAGAAGGACCAAAGU [Mat - Exclusion 2 - Mod of my Tesla design - D10] (puzzle: Exclusion 2)”, for which the “apparent KD of MS2 coat protein” value amounted to 51.7 nM under setting [3], 26.2 nM under setting [1] and 24.6 nM under setting [4].

As for “UGAAAGUGAGGAUAUCCAAUAUAUGACAUGAGGAUCACCCAUGUUUCCACUCGUACCUCCGGAGAAGGCACAAAGU [Ex5 #58] (Eterna round: R97, puzzle: Exclusion 5)”, the “apparent KD of MS2 coat protein” value (input ligand: FMN 200 uM) came to 26.2 nM and the “apparent KD of MS2 coat protein” value (input ligand: none) was 28.8 nM.

“UGAAGUUGUGUGAGGAUAUUUGAAGUGAAAGCUUCGGAGAAGGCACAUGAGGAUCACCCAUGUAAGCGGCUUCG [-25.1, -23 kcal, A 26%, 3bis-3] (Eterna round: R97, puzzle: Brourd's mod of Exclusion 4)”: the “apparent KD of MS2 coat protein” value by setting is: (input ligand: FMN 200 uM) 18.4 nM; (input ligand: none) 15 nM.

With “UGACAGCUAGGAUAUGGGCGUGCUUACAUGAGGAUCACCCAUGUGGUAUCUGAGUAGCACCCAGAAGGAGCCCGCG [Eternabot (L2) Solution 87] (Eterna round: R97, puzzle: Exclusion 5)”, the “apparent KD of MS2 coat protein” value reads like this: (input ligand: FMN 200 uM) 1350 nM; (input ligand: none) 656 nM.

Consider “UGAGACUGAGGAUAUACUAGCCCAUAAAGUGGGUAGUGGGUACAUGAGGAUCACCCAUGUAGAAGGCAGCCUCG [Omei Repeat Sequence v2] (Eterna round: R97, puzzle: Exclusion 2)”, for which the “apparent KD of MS2 coat protein” value runs as follows: (input ligand: FMN 200 uM) 251 nM; (input ligand: none) 29.4 nM.

On to “UGAGCAUGAGGAUAUACAAGGCGACCGUGAGGUCGAGGGUUACAUGAGGAUCACCCAUGUAGAAGGCAUGUUCU [jl-ex2-4.10] (Eterna round: R97, puzzle: Exclusion 2)”, for which the “apparent KD of MS2 coat protein” value amounted to 514 nM (input ligand: FMN 200 uM) and 48.3 nM (input ligand: none).
